From US20260209373A1 (TIANJIN MEDICAL UNIVERSITY GENERAL HOSPITAL, published 2026)

What was measured:
[1] = target: T1, human BAFFR on HEK-293T-BAFFR cells (human, UniProt Q96RJ3 1-184); experiment: cell-based or functional assay
T1 sequence: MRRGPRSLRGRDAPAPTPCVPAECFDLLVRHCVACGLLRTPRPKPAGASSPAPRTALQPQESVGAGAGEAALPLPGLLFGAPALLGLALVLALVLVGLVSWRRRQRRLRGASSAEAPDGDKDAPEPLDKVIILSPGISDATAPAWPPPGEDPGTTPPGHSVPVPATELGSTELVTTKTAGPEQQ

[2] = target: T1, human BAFFR on HEK-293T-BAFFR cells; experiment: flow cytometry on HEK-293T-BAFFR cells, anti-human Fc-647 secondary
Method: The cells were resuspended in a suitable volume of staining solution for flow cytometry, so that the final cell concentration per tube reached 2×10⁵ cells/mL.
The antibodies NB467-55, NB467-46, NB467-35, and NB467-8 produced in Example 1, and Lanalumab were respectively diluted to 200 nM. […] After incubation, the cells were washed once with a FACS buffer.
The anti-human FC-647 secondary antibody (Jackson, 109-605-003) was diluted according to the instructions, and 100 μl of the diluted secondary antibody was added to a sample tube. After uniform mixing, the system was incubated at 4° C. for 60 min. After incubation, the cells were washed 3 times with FACS, and the cell precipitate obtained by centrifugation was resuspended in 200 μl of PBS and detected by flow cytometry (Sony, SA3800).

[3] = target: human BAFFR-his protein (Acro, BAR-HP2H6) (human) (UniProt Q96RJ3); experiment: competition ELISA; plate-coated human BAFFR-his, competitor biotin human BAFF his at 0.2 ug/mL
[4] = target: T2, human BAFFR-his protein (Acro, BAR-HP2H6) (human, UniProt Q96RJ3 7-71, limits assumed); experiment: as above
T2 construct: Bought protein; not shown: his tag
T2 sequence: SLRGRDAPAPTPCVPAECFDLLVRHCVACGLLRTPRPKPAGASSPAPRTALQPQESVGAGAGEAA
Method: Specifically, human BAFFR-his protein (Acro, BAR-HP2H6) was added to a 96-well microplate at 200 ng/well and incubated at 4° C. overnight. On the following day, the plate was washed 3 times with PBST. Then the plate was blocked with 5% w/v skim milk in PBST at 37° C. for 1 h, and then washed with PBS.
The antibody to be tested was 1:3 diluted over gradients from a concentration of 800 nM (diluted with 5% skim milk). Biotin Human BAFF his protein (Acro, BAF-H82Q2) was diluted to 0.2 μg/mL. Control group: 50 μL of diluted Biotin Human BAFF his protein and 50 μL of 5% milk. Experimental group: 50 μL of diluted Biotin Human BAFF his protein and 50 μL of antibody diluted over gradients.
Then, the antibody/Biotin Human BAFF his mixture was added to a plate coated with Human BAFFR-his protein, and incubated at 37° C. for 1 h. The plate was washed 5 times with PBST. The secondary antibody (Chengdu NBbiolab Biotechnology Co., Ltd.) 1:10K diluted with a blocking solution was added and incubate at 37° C. for 1 h. The plate incubated with the secondary antibody was washed 5 times with PBST. 100 μl of a TMB monocomponent developing solution was added to each well, and incubated at 37° C. for 7 min. The reaction was terminated with 50 μL/well of 1 M HCL, and then the absorption value at 450 nm was determined. The median inhibition concentration (IC50 value) was obtained by analyzing the data with Graphpad Prism software.

Lanalumab (antibody) showed an EC50 (ng/ml), ADCC reporter assay (Jurkat-NFAT-CD16a luciferase) [1] of 56.5 ng/mL, an EC50 [2] of 3.58 nM and an IC50 [3] of 310 nM.

B1: NB467-35 (Fc fusion)
chain: QVQLVESGGGLVQPGGSLRLSCAASGFSLEYYAIGWFRQTPGKEREAISCIDSPAKSTYYADSVKGRFTISRDNSKNTVYLQMNSLKAEDTAVYYCAADVYYRGSYLYRSCNPTESKYWGQGTQVTVSS
notes: also called nanobody NB467-35; anti-BAFFR nanobody; not shown: Human IgG1 Fc fused to the VHH
B1 was tested, and the “EC50 (ng/ml), ADCC reporter assay (Jurkat-NFAT-CD16a luciferase)” value (“EC50 (ng/ml), ADCC reporter assay” for short) [1] was 2.67 ng/mL, the EC50 [2] was 3.24 nM and the IC50 [4] was 5.13 nM.

B2: NB467-46 (Fc fusion)
chain: EVQVVESGGGLVQPGGSLRLSCAASGFSLTYYAIGWFRQAPGKEREGVACISGGGDQLYYTDSVKGRFTISRDNAKNTVYLHMNSLKPEDTAVYYCAADVYYSGSYNYRSCNPAESKYWGQGTQVTVSS
notes: also called nanobody NB467-46; anti-BAFFR nanobody; not shown: Human IgG1 Fc fused to the VHH
In the case of B2, the “EC50 (ng/ml), ADCC reporter assay” value [1] is reported as 4.55 ng/mL, the EC50 [2] is reported as 1.55 nM and the IC50 [4] is reported as 30.5 nM.

B3: NB467-55 (Fc fusion)
chain: EVQVVESGGDLVQPGGSLKLSCQASGFSLTYYAIGWFRQAPGKEREEISCISGDGGMTYYADPVKGRFTISRDNGRNTVYLQMNSLKPEDTAVYYCAADVYYNGNYYSRSCNPAESKYWGQGTQVTVSA
notes: also called nanobody NB467-55; anti-BAFFR nanobody; not shown: Human IgG1 Fc fused to the VHH
For B3, the “EC50 (ng/ml), ADCC reporter assay” value [1] was 5.09 ng/mL, the EC50 [2] was 1.55 nM and the IC50 [4] was 40.5 nM.

B4: NB467-8 (Fc fusion)
chain: QVQLVESGGGLVQPGGSLRLSCAASGFSLEYYAIGWFRHIPGKEREAVSCISSPGDSTWYVDSVKGRFTISRDNAKNTVYLQMNSLKPEDTAVYHCAADVYYSGSYLSRSCNPHESKYWGQGTQVTVSS
notes: also called nanobody NB467-8; anti-BAFFR nanobody; not shown: Human IgG1 Fc fused to the VHH
B4 was tested, and the “EC50 (ng/ml), ADCC reporter assay” value [1] was 2.89 ng/mL, the EC50 [2] was 1.76 nM and the IC50 [4] was 30.5 nM.
